Test [1] deals with FcγRIIb-GST (human) (UniProt P31994). The experiment in a line: SPR, IgG on chip, dimeric FcγRIIB, bivalent fit, KD = KD1/(1 + 1/KD2). A general note: Surface plasmon resonance follows binding to a sensor surface in real time, without labels.
The target in test [2] is FcγRI-His (human) (UniProt P12314). The experiment in a line: SPR, IgG on chip, 200 nM monomeric FcγRI.
The target of test [3] is FcγRIIb-GST (human) (UniProt P31994). Briefly: SPR, IgG on chip, dimeric FcγRIIB, bivalent fit.
Test [4] shares this target. Briefly: ELISA, IgG coated, 60 nM receptor. A general note: An ELISA detects its analyte on a solid surface through an enzyme-linked reagent.
In test [5] the target is FcγRI-His (human) (UniProt P12314). Briefly: ELISA, IgG coated, 60 nM FcγRI.
The target in test [6] is FcγRIIa-R131-GST (human) (UniProt P12318). Briefly: ELISA, IgG coated, 200 nM receptor.
Test [7] concerns the target FcγRIIIa-V158-GST (human) (UniProt P08637). Briefly: ELISA, IgG coated, 200 nM receptor.
Test [8] deals with FcγRIIIa-F158-GST (human) (UniProt P08637). The experiment in a line: ELISA, IgG coated, 200 nM receptor.
For test [9], the target named is FcγRIIa-H131-GST (human) (UniProt P12318). The experiment in a line: ELISA, IgG coated, 200 nM receptor.
In test [10] the target is mFcγRII-His (mouse).
The target in test [11] is FcγRIIIa-V158-GST (human) (UniProt P08637). The experiment in a line: ELISA, STPK-Fc coated, receptor titrated.
Test [12] has as its target mFcγRIII-His (mouse) (UniProt P08508).
The target of test [13] is FcγRIIa-R131-GST (human) (UniProt P12318). The experiment in a line: ELISA: antibody coated on the plate, receptor titrated in 5-fold steps, HRP-labelled secondary antibody, absorbance at 450 nm.
Test [14] deals with FcγRIIa-H131-GST (human) (UniProt P12318). Described as above.
Test [15] concerns the target FcγRIIA (H131 and R131)-GST (human) (UniProt P12318). The experiment in a line: FACS on spheroplasts, 400 nM FcγRIIA-GST.
For test [16], the target named is FcγRIIb-GST (human) (UniProt P31994). The experiment in a line: FACS on spheroplasts, 100 nM FcγRIIb-GST-PE.
Test [17] has the same target. The experiment in a line: FACS on spheroplasts, 400 nM FcγRIIB-GST.
Test [18] shares this target. Briefly: FACS on spheroplasts, 400 nM FcγRIIB-GST. This is another data set of the same source.
In a further test the target is mFcγRI-His (mouse) (UniProt P08101). Briefly: FACS on spheroplasts, 1 µM mFcγRI, anti-His-PE.
In a further test the target is mFcγRIV-His (mouse). The experiment in a line: FACS on spheroplasts, 1 µM mFcγRIV, anti-His-PE.
Test [19] has as its target mFcγRII-His (mouse). The experiment in a line: FACS on spheroplasts, 100 nM b-mFcγRII, SA-PE.
Test [20] addresses mFcγRIII-His (mouse) (UniProt P08508). The experiment in a line: FACS on spheroplasts, 1 µM mFcγRIII, anti-His-PE.

In the case of “Rituximab (glycosylated, wild-type IgG1 Fc) (antibody)”, the Kd with FcγRIIb-GST (human) [1] was determined as 8.07 µM. The substance also gave an RUmax with FcγRI-His (human) [2] of 260 RU. In the test with FcγRIIb-GST (human) [3], this substance registered a kD1 of 8.69e-06. In addition, the kD2 with FcγRIIb-GST (human) [3] was found to be 13.1. The absorbance at 450 nm with FcγRIIb-GST (human) [4] was determined as 0.183; with FcγRI-His (human) [5] it was 1.51; with FcγRIIa-R131-GST (human) [6] it was 1.44; in test [7], 0.848; in test [8], 0.203; with FcγRIIa-H131-GST (human) [9], 2.35.

The term IC50 denotes the midpoint of a concentration-inhibition curve. The low end stands for inhibition by little substance, the high end for a need for much substance. For the substance “STPK-mFc (from UniProt P00779 27-440) (Fc fusion)”, the Kd in the test with mFcγRII-His (mouse) [10] stood at 16.1 µM; with mFcγRIII-His (mouse) [12], 14.9 µM. The IC50 in test [11] is > 0.3 µM.

As a reminder, the EC50 (read off the curve) is the concentration needed to bring the measured effect to its halfway point. Read a low EC50 (read off the curve) as higher potency in that assay. As to “glycosylated wild type IgG1 (control of Example 10) (antibody)”, the EC50 (read off the curve) with FcγRIIa-R131-GST (human) [13] stood at 0.01 µM; with FcγRIIa-H131-GST (human) [14], 0.04 µM.

Regarding “wild-type aglycosylated IgG1 displayed on E. coli spheroplasts (antibody)”, the MFI in test [15] stood at 40.9; in the test with FcγRIIb-GST (human) [16] it was 23.5; with FcγRIIb-GST (human) [17], 14; with FcγRIIb-GST (human) [18], 11.1.

On to “wild-type aglycosylated mIgG1 displayed on E. coli spheroplasts (antibody)”, for which the MFI in the test with mFcγRI-His (mouse) turned out to be 515; with mFcγRIV-His (mouse), 155; with mFcγRII-His (mouse) [19], 61.8; with mFcγRIII-His (mouse) [20], 143.

Values taken from US20170058030A1.
